Data as given in publication PMC10928576, “Cpne7 deficiency induces cellular senescence and premature aging of dental pulp” (Aging Cell, 2023).

Experiments:
[1] = tested on: shCpne7-transfected hDPCs; test: DNA damage rescue model in shCpne7-transfected hDPCs (western blot); assay type: cell-based, human; conditions: hDPCs treated after shCpne7 transfection; rCPNE7 100 ng/mL or CPNE7-DP 10 μg/mL
Method: The hDPCs were obtained from the Seoul National University Dental Hospital, and the experimental protocol was accepted by the Institutional Review Board of the Seoul National University (S‐D20140007). Informed consent was obtained from patients. Human DPCs were isolated and used in an in vitro experiment as described previously (Jung et al., [2011]). Human DPCs were cultured in minimum essential medium α (Gibco BRL, 12571063) supplemented with 10% heat‐inactivated fetal bovine serum (FBS; Gibco BRL, 16000044) and antibiotic‐antimycotic (Gibco BRL, 15240062) at 37°C in an atmosphere with 5% CO2. The cells were then treated with recombinant CPNE7 protein (rCPNE7, 100 ng/mL; Origene, TP306428) or CPNE7‐derived peptide (CPNE7‐DP, 10 μg/mL). After oxidative stress‐induced DNA damage using Hydrogen Peroxide Solution (H2O2; Merck, H1009) rCPNE7 was treated after replacement with a new culture medium (α‐MEM). […]
Cellular proteins (30 μg) were separated by 10% or 15% sodium dodecyl sulfate‐polyacrylamide gel electrophoresis (SDS‐PAGE) and transferred to polyvinylidene fluoride (PVDF) membranes. […] Labeled protein bands were detected under an enhanced chemiluminescence system (Amersham Biosciences/GE Healthcare). […] Semi‐quantitative analyses were performed using Image J software (National Institute of Health, MD, USA) (n = 3, each group).

[2] = tested on: periodontal ligament stem cells (PDLSCs); test: Mouse subcutaneous ex vivo transplantation (HA/TCP, PCL), PDLSCs; assay type: in vivo, immunocompromised mice
Method: (§1) The hDPCs, ADSCs, BMSCs, GFs, and PDLSCs (2 × 10^6) were mixed with 100 mg of hydroxyapatite/tricalcium phosphate ceramic powder (Zimmer) alone or with rCPNE7 (100 ng/mL) in an 0.5% fibrin gel. The poly ε‐caprolactone (PCL: Mw 80,000, Sigma–Aldrich, Oakville, ON, Canada) was wrapped around the mixed cells and transplanted subcutaneously into immunocompromised mice (NIHbg‐nu‐xid; Harlan Laboratories) for 6 weeks (n = 3, each group).
(§2) Figure S1. (A) The gingival fibroblasts (GFs) or (B) periodontal ligament stem cells (PDLSCs) were mixed with 100㎎ of hydroxyapatite/tricalcium phosphate (HA) particles alone (control) or with rCPNE7 in a poly ε-caprolactone (PCL) spaces and transplanted subcutaneously into immunocompromised mice for 6 weeks. White arrows indicate newly formed mineralized tissues. Representative immunofluorescence images of DSP (red) were observed (n=3). DAPI (blue) was counterstained to indicate the nucleus. Scale bars: 50㎛.

hDPCs [3] = test: Senescence β-galactosidase (SA-β gal) staining of H2O2-treated hDPCs; assay type: cell-based, human
Method: (§3) The hDPCs were obtained from the Seoul National University Dental Hospital, and the experimental protocol was accepted by the Institutional Review Board of the Seoul National University (S‐D20140007). Informed consent was obtained from patients. Human DPCs were isolated and used in an in vitro experiment as described previously (Jung et al., [2011]). Human DPCs were cultured in minimum essential medium α (Gibco BRL, 12571063) supplemented with 10% heat‐inactivated fetal bovine serum (FBS; Gibco BRL, 16000044) and antibiotic‐antimycotic (Gibco BRL, 15240062) at 37°C in an atmosphere with 5% CO2. The cells were then treated with recombinant CPNE7 protein (rCPNE7, 100 ng/mL; Origene, TP306428) or CPNE7‐derived peptide (CPNE7‐DP, 10 μg/mL). After oxidative stress‐induced DNA damage using Hydrogen Peroxide Solution (H2O2; Merck, H1009) rCPNE7 was treated after replacement with a new culture medium (α‐MEM).
Human DPCs were fixated with Fixative Solution (Cell Signaling Technology, #9860) at room temperature for 15 min. Rinsed twice with PBS, the cells were then stained with β‐Galactosidase Staining Solution (Cell Signaling Technology, #9860) at 37°C overnight in a dry incubator (no CO2). Cells were observed using light microscopy (Primovert, Zeiss, Germany) (n = 3, each group).

hDPCs [4] = tested on: hDPCs
hDPCs [5] = test: Mouse subcutaneous ex vivo transplantation (HA/TCP, PCL), hDPCs; design: species or system human cells in immunocompromised mice; conditions: hDPCs + 100 mg HA/TCP with rCPNE7 100 ng/mL in PCL, 6 weeks, vs control, n = 3
Method: as §1

[6] = tested on: gingival fibroblasts (GFs); test: Mouse subcutaneous ex vivo transplantation (HA/TCP, PCL), GFs; assay type: in vivo, immunocompromised mice
Method: as §1, §2

hDPCs [7] = test: Comet assay; assay type: cell-based, human; conditions: 24 h, 1 mM H2O2 + rCPNE7, vs H2O2 only, n = 3
Method: Human DPCs were combined with Comet Agarose (Abcam, ab238544) at 1/10 ratio (v/v), mixed by pipetting, and immediately transferred onto the top of the Comer Agarose Base Layer Slide (Abcam, ab238544). Set horizontally, the slides were incubated at 4°C in the dark for 15 min, and placed in a small basin/container containing pre‐chilled Lysis Buffer (Abcam, ab238544). They were immersed in the buffer for 1 h at 4°C in the dark. After 1 h, aspiration of the Lysis Buffer from the container was done and replaced with a pre‐chilled Alkaline Solution (Abcam, ab238544), followed by electrophoresis chamber filled with the Alkaline Electrophoresis Solution. Voltage was applied to the chamber for 30 min at 1 volt/cm. The slides were then rinsed with pre‐chilled DI H2O and replaced with cold 70% Ethanol for 5 min. The slide was removed from the 70% Ethanol and allowed to air dry. Once the slide was completely dry, staining with Vista Green DNA Dye (Abcam, ab238544) was done at room temperature for 15 min. Cells were visualized using confocal microscopy (LSM980, Zeiss, Germany) (n = 3, each group).

[8] = tested on: bone marrow stem cells (BMSCs); test: Mouse subcutaneous ex vivo transplantation (HA/TCP, PCL), BMSCs; assay type: in vivo, immunocompromised mice; conditions: rCPNE7 treatment
Method: as §1

[9] = tested on: human dental pulp cells (hDPCs); test: Live-cell imaging of hDPC morphology with or without rCPNE7; assay type: cell-based; conditions: rCPNE7 100 ng/mL for 24 h, then differentiation media 7 days, vs control, n = 3
Method: as §3
The morphologic change of hDPCs treated with or without rCPNE7 was measured by live‐cell imaging (n = 3, each group). After being treated with rCPNE7 for 24 h, the cells were differentiated for 7 days and scanned for 2 days. Bright‐field images of the cells were acquired using a confocal laser scanning microscopy system (LSM980, Zeiss, Germany). […] Timelapse images collected from a single Z plane were recorded at 8‐min intervals.

dentinal damage sites = conditions: treated onto dentinal damage sites; ref Lee et al., [2020]; cited from earlier work
Description: However, little is known about how odontoblasts age and survive through the days beyond entering dormancy, which actually comprise the major part of their life span. Aging is defined as a gradual loss of physiologic tissue integrity and impaired function, ultimately leading to cell death. Aged pulp is characterized by lower cell population, pulp stem cell tiredness, and, overall, reduced responsiveness to external stimuli (Bernick & Nedelman, [1975]). It has been reported that one of the survival mechanisms of aging odontoblasts is autophagy, which involves degradation and turnover of cellular ...

hDPCs [10] = test: RNA-sequencing of rCPNE7-treated hDPCs; assay type: cell-based, human; conditions: n = 3
Method: The isolated RNA (n = 3, each group) was shipped to Macrogen (Seoul, Korea) for the library preparation, sequencing, and analysis of data. The cDNA Library for sequencing was prepared using TruSeq Stranded mRNA LT Sample Prep Kit. Total RNA was randomly fragmented, converted to complementary DNA (cDNA), and amplified according to the manufacturer's protocol. The cDNA was then ligated to sequencing adapters. Sequencing was performed on Illumina's HiSeq2500 platform. HISAT2 was used for mapping trimmed reads to reference genome (UCSC mm10), and the transcript assembly was performed using StringTie. To identify differentially expressed genes (DEGs), the expression profile was calculated for each sample and normalized to FPKM. KEGG database and Gene Ontology were used to perform functional annotation and gene‐set enrichment analysis on DEGs for known gene annotation. Genes with |fc| 1.5 and independent T‐test raw p‐value <0.05 were counted as significant.

[11] = tested on: adipogenic stem cells (ADSCs); test: Mouse subcutaneous ex vivo transplantation (HA/TCP, PCL), ADSCs; assay type: in vivo, immunocompromised mice; conditions: adipose stem cells, rCPNE7 treatment
Method: as §1

hDPCs [12] = test: Live-cell imaging of intracellular ROS (DCFDA); assay type: cell-based, human; conditions: rCPNE7 treatment 15 min after H2O2 treatment, n = 3
Method: Human DPCs were stained with DCFDA‐cellular ROS assay kit (Abcam, ab113851) for 40 min at 37°C in a humidified environment at 5% CO2. Then, live cell imaging was performed with a filter set appropriate for fluorescein (FITC) (n = 3, each group). Low light conditions were maintained to avoid photobleaching and photo‐oxidation of DCF.

hDPCs [13] = test: γ-H2AX immunofluorescence in hDPCs; assay type: cell-based, human; conditions: rCPNE7 after 30 min of 1 mM H2O2, vs H2O2 only
Method: Human DPCs and tissue sections were treated with phosphate‐buffered saline (PBS) and 0.5% Triton X‐100 for permeabilization. After washing and blocking, cells and tissue samples were incubated overnight at 4°C with γ‐H2AX (1:100, Cell Signaling Technology, #9718) and CPNE7 (1:100) in blocking buffer (PBS and 2% bovine serum albumin). Subsequently, FITC‐conjugated anti‐rabbit secondary antibody (1:500) or Cy3‐conjugated anti‐rabbit (1:500) was applied. Cells were visualized using confocal microscopy (LSM980, Zeiss, Germany). The chromosomal DNA in the nucleus was stained with 4′,6‐diamidino‐2‐phenylindole (DAPI). The microtubules were detected using α‐TUBULIN antibodies (1:1000; Santa Cruz), and F‐ACTIN was stained with Alexa Fluor 488 or rhodamine‐conjugated phalloidin (Invitrogen). Flag‐tagged rCPNE7 was detected using Flag‐antibodies (1:500; Sigma–Aldrich), and TAU was detected by TAU antibodies (1:100; CUSABIO). Immunofluorescence staining of TAU, F‐ACTIN, and α‐TUBULIN was analyzed using the IMARIS cell imaging software (Bitplane) (n = 3, each group).

hDPCs [14] = test: γ-H2AX / P21 western blot in H2O2-treated hDPCs; assay type: cell-based, human; conditions: H2O2 + rCPNE7, after 48 h, vs H2O2 only
Method: Cellular proteins (30 μg) were separated by 10% or 15% sodium dodecyl sulfate‐polyacrylamide gel electrophoresis (SDS‐PAGE) and transferred to polyvinylidene fluoride (PVDF) membranes. The PVDF membranes were blocked for 1 h with 5% nonfat dry milk in Tris‐buffered saline containing 0.1% Tween 20 (TBS‐T) and incubated overnight at 4°C with the primary antibody diluted in TBS‐T (1:5000). After washing, membranes were incubated for 1 h with the appropriate secondary antibodies. Labeled protein bands were detected under an enhanced chemiluminescence system (Amersham Biosciences/GE Healthcare). All reactions were performed in triplicate. Semi‐quantitative analyses were performed using Image J software (National Institute of Health, MD, USA) (n = 3, each group).

B1: rCPNE7: recombinant CPNE7 protein (Origene, TP306428) (protein, UniProt Q9UBL6 1-633, looked up)
Copine-7: MSAGSERGAAATPGGLPAPCASKVELRLSCRHLLDRDPLTKSDPSVALLQQAQGQWVQVGRTEVVRSSLHPVFSKVFTVDYYFEEVQRLRFEVYDTHGPSGFSCQEDDFLGGMECTLGQPAQKWLLQVVMRVSVDVLGPAGHCAKHFLCCTESSHLARTGPSFLLRYDDLCLPWATAGAVRWWTCRGGHTQGWQIVAQKKVTRPLLLKFGRNAGKSTITVIAEDISGNNGYVELSFRARKLDDKDLFSKSDPFLELYRVNDDQGLQLVYRTEVVKNNLNPVWEAFKVSLSSLCSCEETRPLKCLVWDYDSRGKHDFIGEFSTTFEEMQKAFEEGQAQWDCVNPKYKQKRRSYKNSGVVVLADLKFHRVYSFLDYIMGGCQIHFTVAIDFTASNGDPRNSCSLHYINPYQPNEYLKALVSVGEICQDYDSDKRFSALGFGARIPPKYEVSHDFAINFNPEDDECEGIQGVVEAYQNCLPRVQLYGPTNVAPIISKVARVAAAEESTGKASQYYILLILTDGVVTDMADTREAIVRASRLPMSIIIVGVGNADFTDMQVLDGDDGVLRSPRGEPALRDIVQFVPFRELKNASPAALAKCVLAEVPKQVVEYYSHRGLPPRSLGVPAGEASPGCTP
[1]
  expression level of γ-H2AX (western blot): evidently diminished
[2]; PDLSCs + HA/TCP with rCPNE7 in PCL spaces, 6 weeks, vs control, n = 3
  amount of newly formed DSP-positive mineralized tissue: slightly greater amount
[2]; PDLSCs, rCPNE7 treatment
  odontoblastic differentiation upon treatment: did not undergo odontoblastic differentiation
hDPCs [3]; hDPCs in growth media containing rCPNE7 for 72 h after oxidative stress (1 mM H2O2) for an hour, vs control
  progress of cellular senescence (SA-β gal): progressed more slowly than the control
hDPCs [3]; hDPCs passage 3, 1 mM H2O2 + rCPNE7, an hour later, vs H2O2 only, n = 3
  number of SA-β gal-positive dental pulp cells: significantly decreased
hDPCs [4]; rCPNE7 after 30 min treatment of 1 mM or 2 mM H2O2, 48 h, vs H2O2 only
  cell viability (WST-8): cell viability was higher
hDPCs [4]; rCPNE7 after 30 min treatment of H2O2, vs H2O2 only
  cell-to-cell contact (light microscopy): more organized
hDPCs [5]
  odontoblast-like differentiation and dentin-like tissue-forming capacity ex vivo: enhanced odontoblast‐like differentiation and dentin‐like tissue‐forming capacity
[6]; GFs + HA/TCP with rCPNE7 in PCL spaces, 6 weeks, vs control, n = 3
  amount of newly formed DSP-positive mineralized tissue: slightly greater amount
[6]; GFs, rCPNE7 treatment
  odontoblastic differentiation upon treatment: did not undergo odontoblastic differentiation
hDPCs [7]
  length of comet tail (fragmented DNA): much shorter
[8]
  odontoblastic differentiation upon treatment: did not undergo odontoblastic differentiation
[9]
  cellular process morphology: elongation of a uni‐directional cellular process was observed
Dentinal damage sites
  dentin formation at dentinal damage sites: tertiary dentin formation of tubular nature
hDPCs [10]
  mRNA expression levels of histone and chromatin-related genes: significantly increased
[11]
  odontoblastic differentiation upon treatment: did not undergo odontoblastic differentiation
hDPCs [12]
  intracellular ROS level (DCFDA fluorescence): gradually decreased back to the normal level
hDPCs [13]
  accumulation of DNA damage (γ-H2AX immunofluorescence): rarely observed
hDPCs [14]
  protein expression level of γ-H2AX (western blot): hardly detected
